Assay results from paper PMC4315173 (The Biochemical journal, 2014).

Tests used:
[1] = biological target: endogenous PDE4D (mouse brain) (mouse (endogenous in brain)) (UniProt Q01063); experiment: co-IP
[2] = biological target: the molecule itself; experiment: SEC + other: sucrose density gradient centrifugation

Sequence of endogenous PDE4D (mouse brain) (mouse (endogenous in brain)) (Q01063 whole entry): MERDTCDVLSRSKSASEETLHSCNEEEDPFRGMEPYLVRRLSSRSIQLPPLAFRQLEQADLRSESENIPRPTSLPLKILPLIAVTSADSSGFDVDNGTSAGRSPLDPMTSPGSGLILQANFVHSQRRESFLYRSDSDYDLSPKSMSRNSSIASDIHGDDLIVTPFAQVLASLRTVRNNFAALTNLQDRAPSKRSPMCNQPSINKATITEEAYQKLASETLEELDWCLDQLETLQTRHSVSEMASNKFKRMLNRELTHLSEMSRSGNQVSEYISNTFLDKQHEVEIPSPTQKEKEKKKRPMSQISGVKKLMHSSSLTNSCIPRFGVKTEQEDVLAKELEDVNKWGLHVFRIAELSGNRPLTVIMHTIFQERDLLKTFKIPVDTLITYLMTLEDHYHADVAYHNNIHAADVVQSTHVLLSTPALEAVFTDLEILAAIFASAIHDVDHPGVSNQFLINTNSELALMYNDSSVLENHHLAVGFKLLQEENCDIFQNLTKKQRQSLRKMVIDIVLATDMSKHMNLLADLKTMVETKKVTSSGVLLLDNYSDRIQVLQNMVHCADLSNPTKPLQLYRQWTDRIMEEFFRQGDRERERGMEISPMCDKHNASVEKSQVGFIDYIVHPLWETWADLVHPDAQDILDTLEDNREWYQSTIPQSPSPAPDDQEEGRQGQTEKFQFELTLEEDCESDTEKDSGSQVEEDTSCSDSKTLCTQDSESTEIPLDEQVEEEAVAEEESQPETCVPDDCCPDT
Sequence of endogenous long PDE4A variants (mouse brain) (O89084 whole entry, change not shown): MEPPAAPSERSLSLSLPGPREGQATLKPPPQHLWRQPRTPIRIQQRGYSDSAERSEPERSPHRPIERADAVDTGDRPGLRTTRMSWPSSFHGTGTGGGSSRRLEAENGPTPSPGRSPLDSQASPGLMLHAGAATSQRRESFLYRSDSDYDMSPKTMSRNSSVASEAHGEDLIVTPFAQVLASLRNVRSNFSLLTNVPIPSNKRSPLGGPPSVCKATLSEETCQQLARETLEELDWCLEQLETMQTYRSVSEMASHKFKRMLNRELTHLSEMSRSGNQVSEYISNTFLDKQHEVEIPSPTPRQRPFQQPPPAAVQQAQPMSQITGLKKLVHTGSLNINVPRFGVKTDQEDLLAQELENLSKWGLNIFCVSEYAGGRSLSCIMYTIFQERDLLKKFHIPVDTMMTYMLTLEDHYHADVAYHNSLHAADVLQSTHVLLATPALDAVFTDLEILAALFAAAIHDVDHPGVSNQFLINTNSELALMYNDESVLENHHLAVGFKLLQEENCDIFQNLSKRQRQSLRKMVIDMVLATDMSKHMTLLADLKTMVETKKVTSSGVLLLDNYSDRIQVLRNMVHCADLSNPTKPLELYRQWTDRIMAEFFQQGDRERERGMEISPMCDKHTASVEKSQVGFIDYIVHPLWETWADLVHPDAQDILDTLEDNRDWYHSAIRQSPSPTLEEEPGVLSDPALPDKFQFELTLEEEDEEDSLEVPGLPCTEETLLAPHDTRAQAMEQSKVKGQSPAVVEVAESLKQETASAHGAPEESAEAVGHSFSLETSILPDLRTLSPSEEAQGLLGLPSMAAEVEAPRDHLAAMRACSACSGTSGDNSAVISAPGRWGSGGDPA

Row | Molecule | percent of the total PDE4A found in complex with PDE4D [1] | stoichiometry N [2]
1 | endogenous long PDE4A variants (mouse brain) (from UniProt O89084 1-844) (natural protein) | 2% | –
2 | PDE4D3 (natural protein, UniProt P14270-1 1-672, looked up) MMHVNTFPFRRHSWICFDVDNGTSAGRSPLDPMTSPGSGLILQANFVHSQRRESFLYRSDSDYDLSPKSMSRNSSIASDIHGDDLIVTPFAQVLASLRTVRNNFAALTNLQDRAPSKRSPMCNQPSINKATITEEAYQKLASETLEELDWCLDQLETLQTRHSVSEMASNKFKRMLNRELTHLSEMSRSGNQVSEYISNTFLDKQHEVEIPSPTQKEKEKKKRPMSQISGVKKLMHSSSLTNSCIPRFGVKTEQEDVLAKELEDVNKWGLHVFRIAELSGNRPLTVIMHTIFQERDLLKTFKIPVDTLITYLMTLEDHYHADVAYHNNIHAADVVQSTHVLLSTPALEAVFTDLEILAAIFASAIHDVDHPGVSNQFLINTNSELALMYNDSSVLENHHLAVGFKLLQEENCDIFQNLTKKQRQSLRKMAIDIVLATDMSKHMNLLADLKTMVETKKVTSSGVLLLDNYSDRIQVLQNMVHCADLSNPTKPLQLYRQWTDRIMEEFFRQGDRERERGMEISPMCDKHNASVEKSQVGFIDYIVHPLWETWADLVHPDAQDILDTLEDNREWYQSTIPQSPSPAPDDQEDGRQGQTEKFQFELTLEEDGESDTEKDSGSQVEEDTSCSDSKTLCTQDSESTEIPLDEQVEEEAVAEEESQPQTGVADDCCPDT | – | 2
3 | PDE4D4 (natural protein, rat, UniProt P14270-5 1-803, looked up) MEAEGSSVPARAGSHEGSDSSGGAALKAPKHLWRHEQHHQYPLRQPQFRLLHPHHHLPPPPPPSPQPQLQPPPPPPLPPPPPPPGATRGRYASSGASRVRHRGYSDTERYLYCRAMDRTSYAVETGHRPGLKKSRMSWPSSFQGLRRFDVDNGTSAGRSPLDPMTSPGSGLILQANFVHSQRRESFLYRSDSDYDLSPKSMSRNSSIASDIHGDDLIVTPFAQVLASLRTVRNNFAALTNLQDRAPSKRSPMCNQPSINKATITEEAYQKLASETLEELDWCLDQLETLQTRHSVSEMASNKFKRMLNRELTHLSEMSRSGNQVSEYISNTFLDKQHEVEIPSPTQKEKEKKKRPMSQISGVKKLMHSSSLTNSCIPRFGVKTEQEDVLAKELEDVNKWGLHVFRIAELSGNRPLTVIMHTIFQERDLLKTFKIPVDTLITYLMTLEDHYHADVAYHNNIHAADVVQSTHVLLSTPALEAVFTDLEILAAIFASAIHDVDHPGVSNQFLINTNSELALMYNDSSVLENHHLAVGFKLLQEENCDIFQNLTKKQRQSLRKMAIDIVLATDMSKHMNLLADLKTMVETKKVTSSGVLLLDNYSDRIQVLQNMVHCADLSNPTKPLQLYRQWTDRIMEEFFRQGDRERERGMEISPMCDKHNASVEKSQVGFIDYIVHPLWETWADLVHPDAQDILDTLEDNREWYQSTIPQSPSPAPDDQEDGRQGQTEKFQFELTLEEDGESDTEKDSGSQVEEDTSCSDSKTLCTQDSESTEIPLDEQVEEEAVAEEESQPQTGVADDCCPDT | – | 2
4 | PDE4D5 (natural protein, rat, UniProt P14270-8 1-745, looked up) MAQQTTSPDTLTVPEVDNPHVPNPWLNEDLVKSLRENLLQHEKSKTARKSVSPKLSPVISPRNSPRLLRRMLLSSNIPKQRRFTVAHTCFDVDNGTSAGRSPLDPMTSPGSGLILQANFVHSQRRESFLYRSDSDYDLSPKSMSRNSSIASDIHGDDLIVTPFAQVLASLRTVRNNFAALTNLQDRAPSKRSPMCNQPSINKATITEEAYQKLASETLEELDWCLDQLETLQTRHSVSEMASNKFKRMLNRELTHLSEMSRSGNQVSEYISNTFLDKQHEVEIPSPTQKEKEKKKRPMSQISGVKKLMHSSSLTNSCIPRFGVKTEQEDVLAKELEDVNKWGLHVFRIAELSGNRPLTVIMHTIFQERDLLKTFKIPVDTLITYLMTLEDHYHADVAYHNNIHAADVVQSTHVLLSTPALEAVFTDLEILAAIFASAIHDVDHPGVSNQFLINTNSELALMYNDSSVLENHHLAVGFKLLQEENCDIFQNLTKKQRQSLRKMAIDIVLATDMSKHMNLLADLKTMVETKKVTSSGVLLLDNYSDRIQVLQNMVHCADLSNPTKPLQLYRQWTDRIMEEFFRQGDRERERGMEISPMCDKHNASVEKSQVGFIDYIVHPLWETWADLVHPDAQDILDTLEDNREWYQSTIPQSPSPAPDDQEDGRQGQTEKFQFELTLEEDGESDTEKDSGSQVEEDTSCSDSKTLCTQDSESTEIPLDEQVEEEAVAEEESQPQTGVADDCCPDT | – | 2
5 | PDE4A4 (natural protein, human, UniProt P27815-1 1-886, looked up) MEPPTVPSERSLSLSLPGPREGQATLKPPPQHLWRQPRTPIRIQQRGYSDSAERAERERQPHRPIERADAMDTSDRPGLRTTRMSWPSSFHGTGTGSGGAGGGSSRRFEAENGPTPSPGRSPLDSQASPGLVLHAGAATSQRRESFLYRSDSDYDMSPKTMSRNSSVTSEAHAEDLIVTPFAQVLASLRSVRSNFSLLTNVPVPSNKRSPLGGPTPVCKATLSEETCQQLARETLEELDWCLEQLETMQTYRSVSEMASHKFKRMLNRELTHLSEMSRSGNQVSEYISTTFLDKQNEVEIPSPTMKEREKQQAPRPRPSQPPPPPVPHLQPMSQITGLKKLMHSNSLNNSNIPRFGVKTDQEELLAQELENLNKWGLNIFCVSDYAGGRSLTCIMYMIFQERDLLKKFRIPVDTMVTYMLTLEDHYHADVAYHNSLHAADVLQSTHVLLATPALDAVFTDLEILAALFAAAIHDVDHPGVSNQFLINTNSELALMYNDESVLENHHLAVGFKLLQEDNCDIFQNLSKRQRQSLRKMVIDMVLATDMSKHMTLLADLKTMVETKKVTSSGVLLLDNYSDRIQVLRNMVHCADLSNPTKPLELYRQWTDRIMAEFFQQGDRERERGMEISPMCDKHTASVEKSQVGFIDYIVHPLWETWADLVHPDAQEILDTLEDNRDWYYSAIRQSPSPPPEEESRGPGHPPLPDKFQFELTLEEEEEEEISMAQIPCTAQEALTAQGLSGVEEALDATIAWEASPAQESLEVMAQEASLEAELEAVYLTQQAQSTGSAPVAPDEFSSREEFVVAVSHSSPSALALQSPLLPAWRTLSVSEHAPGLPGLPSTAAEVEAQREHQAAKRACSACAGTFGEDTSALPAPGGGGSGGDPT | – | 2
